Data on one molecule can be found in patent US20240156869A1 (published 2024).

The target in this test is T1, HERV-E (CT-RCC8/9 by the listing's note) peptide on HLA-A*11 (human).
T1 peptide: ATFLGSLTWK
Put plainly: cytokine release.

Experimental: To test whether A*11 expression conferred target recognition to these transduced cells, a co-culture experiment was performed. […] After 18 hours, the supernatant was collected and an ELSIA was performed on the supernatant for interferon-gamma (IFNγ).
To test whether A*02 expression conferred target recognition to these transduced cells, a co-culture experiment was performed. […] After 18 hours, the supernatant was collected, and an ELISA was performed on the supernatant for Interferon-gamma (IFNγ).

B1: HERV-E-TCR (TCR, V domains shown)
Valpha: GIQVEQSPPDLILQEGANSTLRCNFSDSVNNLQWFHQNPWGQLINLFYIPSGTKQNGRLSATTVATERYSLLYISSSQTTDSGVYFCAVRGGADGLTFGKGTHLIIQP
Vbeta: DTEVTQTPKHLVMGMTNKKSLKCEQHMGHRAMYWYKQKAKKPPELMFVYSYEKLSINESVPSRFSPECPNSSLLNLHLHALQPEDSALYLCASSPPNEKLFFGSGTQLSVL
For the molecule B1, the binding result is “recognises”.
